The EC50 (read off the curve) is the concentration that produces a half-maximal response. The low end stands for greater potency, the high end for weaker potency. A word on the Kd: it is the constant that tells how readily two partners part at equilibrium. A low value points to a tighter complex. As usually defined, the EC50 is the concentration at which the effect is half-maximal.

Assay [1] addresses T1, catalytic domain of human LOXL2 (545-775) (human, UniProt Q9Y4K0 545-774).
T1 construct: No vector-derived tag is stated; also called recombinant catalytic domain of LOXL2; catalytic fragment
The assay is described as follows: ELISA; plate coated with the catalytic domain of LOXL2, antibody titrated. As for the experimental part:
(§1) A 96 well plate (Nunc) was coated with LOXL2 or BSA at 5 μg/ml. After the plate was coated, it was incubated with the antibody for 1 h at 25° C. The bound antibody was detected by peroxidase-conjugated antibody goat anti mouse according to standard procedures. The EC₅₀ was calculated from a four-parametric sigmoidal-curve fitting analysis.
In general terms: ELISA stands for enzyme-linked immunosorbent assay.

Assay [2] concerns the target T2, human LOXL2 (full length enzyme) (human, UniProt Q9Y4K0 26-774).
T2 construct: also called lysyl-oxidase like protein-2
T2 sequence: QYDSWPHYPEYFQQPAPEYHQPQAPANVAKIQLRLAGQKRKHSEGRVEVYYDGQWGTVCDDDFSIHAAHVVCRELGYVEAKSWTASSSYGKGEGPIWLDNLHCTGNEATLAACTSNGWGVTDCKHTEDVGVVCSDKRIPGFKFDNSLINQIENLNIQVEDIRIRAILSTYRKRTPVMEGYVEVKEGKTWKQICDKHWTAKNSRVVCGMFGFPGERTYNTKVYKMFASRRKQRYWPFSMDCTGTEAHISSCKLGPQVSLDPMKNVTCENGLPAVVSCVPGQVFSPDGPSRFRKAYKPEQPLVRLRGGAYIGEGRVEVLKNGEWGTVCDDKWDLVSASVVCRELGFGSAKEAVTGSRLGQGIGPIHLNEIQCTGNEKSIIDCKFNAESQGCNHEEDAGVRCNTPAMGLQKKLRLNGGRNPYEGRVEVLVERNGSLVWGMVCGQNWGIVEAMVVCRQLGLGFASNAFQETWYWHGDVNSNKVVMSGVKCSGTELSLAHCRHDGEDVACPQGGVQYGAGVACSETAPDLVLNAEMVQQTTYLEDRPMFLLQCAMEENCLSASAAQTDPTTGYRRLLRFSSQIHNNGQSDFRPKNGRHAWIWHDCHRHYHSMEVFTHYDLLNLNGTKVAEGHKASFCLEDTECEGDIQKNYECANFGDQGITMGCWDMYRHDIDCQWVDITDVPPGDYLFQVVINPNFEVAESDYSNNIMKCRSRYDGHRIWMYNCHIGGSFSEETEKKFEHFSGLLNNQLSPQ
The assay is described as follows: microscale thermophoresis in solution; x axis printed as [LOXL2], nM; LOXL2 construct not specified on the sheet or in the legend.

The target in assay [3] is T1, catalytic domain of human LOXL2 …. The assay is described as follows: ELISA; plate coated with the catalytic domain of LOXL2, antibody titrated, detection with peroxidase-conjugated goat anti-mouse antibody. As for the experimental part: as §1

B1: GS341 antibody (antibody, V domains shown)
VH: QVQLQQPGAELVRPGASVKLSCKASGYSFTNYWMSWVKQRPGQGLEWIGMIHPSDTDIRLHQKFKDKATLTVDKSSSTAYVQLSSPTSEDSAVYYCARGGQLGPWFAYWGQGTLVTVSA
VL: DIVMTQSPASLAVSLGQRATISCRASKSVSTSGYSYMHWYQQKPGQPPKLLIYLASNLESGVPARFSGSGSGTFTLNIHPVEEEDAATYYCQHSRELPWTFGGGTKLEIKR
notes: also called A341; ab341
With B1, in assay [1], the “EC50 (read off the curve)” value is roughly 0.4 nM. The same molecule registered a Kd in assay [2] of 6.97 nM. In addition, the EC50 in assay [3] turned out to be 0.35 nM.

The record behind these values is patent publication US20170210823A1 (YEDA RESEARCH AND DEVELOPMENT, published 2017).
